Data reported in IntAct's records for PubMed 31515488.

B1: Coiled-coil domain-containing protein 106 (Homo sapiens), Q9BWC9 (parent)
chain: MNDRSSRRRTMKDDETFEISIPFDEAPHLDPQIFYSLSPSRRNFEEPPEAASSALALMNSVKTQLHMALERNSWLQKRIEDLEEERDFLRCQLDKFISSARMEAEDHCRMKPGPRRMEGDSRGGAGGEASDPESAASSLSGASEEGSASERRRQKQKGGASRRRFGKPKARERQRVKDADGVLCRYKKILGTFQKLKSMSRAFEHHRVDRNTVALTTPIAELLIVAPEKLAEVGEFDPSKERLLEYSRRCFLALDDETLKKVQALKKSKLLLPITYRFKR
B2: Kinetochore protein NDC80 homolog (Homo sapiens), O14777 (parent)
chain: MKRSSVSSGGAGRLSMQELRSQDVNKQGLYTPQTKEKPTFGKLSINKPTSERKVSLFGKRTSGHGSRNSQLGIFSSSEKIKDPRPLNDKAFIQQCIRQLCEFLTENGYAHNVSMKSLQAPSVKDFLKIFTFLYGFLCPSYELPDTKFEEEVPRIFKDLGYPFALSKSSMYTVGAPHTWPHIVAALVWLIDCIKIHTAMKESSPLFDDGQPWGEETEDGIMHNKLFLDYTIKCYESFMSGADSFDEMNAELQSKLKDLFNVDAFKLESLEAKNRALNEQIARLEQEREKEPNRLESLRKLKASLQGDVQKYQAYMSNLESHSAILDQKLNGLNEEIARVELECETIKQENTRLQNIIDNQKYSVADIERINHERNELQQTINKLTKDLEAEQQKLWNEELKYARGKEAIETQLAEYHKLARKLKLIPKGAENSKGYDFEIKFNPEAGANCLVKYRAQVYVPLKELLNETEEEINKALNKKMGLEDTLEQLNAMITESKRSVRTLKEEVQKLDDLYQQKIKEAEEEDEKCASELESLEKHKHLLESTVNQGLSEAMNELDAVQREYQLVVQTTTEERRKVGNNLQRLLEMVATHVGSVEKHLEEQIAKVDREYEECMSEDLSENIKEIRDKYEKKATLIKSSEE
partner: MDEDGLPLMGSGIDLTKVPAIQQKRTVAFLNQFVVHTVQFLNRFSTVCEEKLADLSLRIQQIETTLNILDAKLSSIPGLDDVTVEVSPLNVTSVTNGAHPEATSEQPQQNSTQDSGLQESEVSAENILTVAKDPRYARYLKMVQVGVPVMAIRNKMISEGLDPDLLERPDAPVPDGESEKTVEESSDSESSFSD
B3: G-patch domain and KOW motifs-containing protein (Homo sapiens), Q92917 (parent)
chain: MADSKEGVLPLTAASTAPISFGFTRTSARRRLADSGDGAGPSPEEKDFLKTVEGRELQSVKPQEAPKELVIPLIQNGHRRQPPARPPGPSTDTGALADGVVSQAVKELIAESKKSLEERENAGVDPTLAIPMIQKGCTPSGEGADSEPRAETVPEEANYEAVPVEAYGLAMLRGMGWKPGEGIGRTFNQVVKPRVNSLRPKGLGLGANLTEAQALTPTGPSRMPRPDEEQEKDKEDQPQGLVPGGAVVVLSGPHRGLYGKVEGLDPDNVRAMVRLAVGSRVVTVSEYYLRPVSQQEFDKNTLDLRQQNGTASSRKTLWNQELYIQQDNSERKRKHLPDRQDGPAAKSEKAAPRSQHWLHRDLRVRFVDNMYKGGQYYNTKMIIEDVLSPDTCVCRTDEGRVLEGLREDMLETLVPKAEGDRVMVVLGPQTGRVGHLLSRDRARSRALVQLPRENQVVELHYDAICQYMGPSDTDDD
partner: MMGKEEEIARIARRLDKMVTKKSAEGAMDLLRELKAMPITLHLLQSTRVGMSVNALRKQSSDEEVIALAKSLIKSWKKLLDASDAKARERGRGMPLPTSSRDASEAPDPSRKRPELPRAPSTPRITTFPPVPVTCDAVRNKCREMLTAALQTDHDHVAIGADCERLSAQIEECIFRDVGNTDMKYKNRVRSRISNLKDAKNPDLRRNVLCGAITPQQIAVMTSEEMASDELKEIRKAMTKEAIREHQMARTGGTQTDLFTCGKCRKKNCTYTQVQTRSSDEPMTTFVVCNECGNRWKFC
B4: Protein FAM9B (Homo sapiens), Q8IZU0 (parent)
chain: MAAWGKKHAGKDPVRDECEERNRFTETREEDVTDEHGEREPFAETDEHTGANTKKPEDTAEDLTAKRKRMKMDKTCSKTKNKSKHALRKKQLKRQKRDYIHSLKLLNVLEEYITDEQKEEEEEEGEEEELIRIFQEQQKKWQQYRSVRRERLKEMKLLRDQFVKALEDFEDLCDRVFSDEDSELDN
partner: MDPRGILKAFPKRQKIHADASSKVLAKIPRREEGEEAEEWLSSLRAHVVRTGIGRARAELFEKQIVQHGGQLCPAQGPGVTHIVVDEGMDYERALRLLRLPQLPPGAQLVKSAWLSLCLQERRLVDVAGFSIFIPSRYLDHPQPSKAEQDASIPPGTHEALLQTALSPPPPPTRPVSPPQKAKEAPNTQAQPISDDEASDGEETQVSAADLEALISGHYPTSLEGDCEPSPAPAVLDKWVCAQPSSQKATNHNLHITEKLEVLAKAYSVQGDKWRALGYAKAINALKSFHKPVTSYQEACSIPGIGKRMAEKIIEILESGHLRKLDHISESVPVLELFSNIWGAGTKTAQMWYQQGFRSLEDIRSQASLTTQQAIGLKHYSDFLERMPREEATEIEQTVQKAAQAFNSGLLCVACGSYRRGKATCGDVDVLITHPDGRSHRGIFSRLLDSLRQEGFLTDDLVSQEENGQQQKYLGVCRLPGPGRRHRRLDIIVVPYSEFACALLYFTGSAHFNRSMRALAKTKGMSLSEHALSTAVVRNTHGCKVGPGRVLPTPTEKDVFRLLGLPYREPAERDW
B5: Alpha-ketoglutarate-dependent dioxygenase alkB homolog 3 (Homo sapiens), Q96Q83 (parent)
chain: MEEKRRRARVQGAWAAPVKSQAIAQPATTAKSHLHQKPGQTWKNKEHHLSDREFVFKEPQQVVRRAPEPRVIDREGVYEISLSPTGVSRVCLYPGFVDVKEADWILEQLCQDVPWKQRTGIREDITYQQPRLTAWYGELPYTYSRITMEPNPHWHPVLRTLKNRIEENTGHTFNSLLCNLYRNEKDSVDWHSDDEPSLGRCPIIASLSFGATRTFEMRKKPPPEENGDYTYVERVKIPLDHGTLLIMEGATQADWQHRVPKEYHSREPRVNLTFRTVYPDPRGAPW
B6: Tuftelin-interacting protein 11 (Homo sapiens), Q9UBB9 (parent)
chain: MSLSHLYRDGEGRIDDDDDERENFEITDWDLQNEFNPNRQRHWQTKEEATYGVWAERDSDDERPSFGGKRARDYSAPVNFISAGLKKGAAEEAELEDSDDEEKPVKQDDFPKDFGPRKLKTGGNFKPSQKGFAGGTKSFMDFGSWERHTKGIGQKLLQKMGYVPGRGLGKNAQGIINPIEAKQRKGKGAVGAYGSERTTQSMQDFPVVDSEEEAEEEFQKELSQWRKDPSGSKKKPKYSYKTVEELKAKGRISKKLTAPQKELSQVKVIDMTGREQKVYYSYSQISHKHNVPDDGLPLQSQQLPQSGKEAKAPGFALPELEHNLQLLIDLTEQEIIQNDRQLQYERDMVVNLFHELEKMTEVLDHEERVISNLSKVLEMVEECERRMQPDCSNPLTLDECARIFETLQDKYYEEYRMSDRVDLAVAIVYPLMKEYFKEWDPLKDCTYGTEIISKWKSLLENDQLLSHGGQDLSADAFHRLIWEVWMPFVRNIVTQWQPRNCDPMVDFLDSWVHIIPVWILDNILDQLIFPKLQKEVENWNPLTDTVPIHSWIHPWLPLMQARLEPLYSPIRSKLSSALQKWHPSDSSAKLILQPWKDVFTPGSWEAFMVKNIVPKLGMCLGELVINPHQQHMDAFYWVIDWEGMISVSSLVGLLEKHFFPKWLQVLCSWLSNSPNYEEITKWYLGWKSMFSDQVLAHPSVKDKFNEALDIMNRAVSSNVGAYMQPGARENIAYLTHTERRKDFQYEAMQERREAENMAQRGIGVAASSVPMNFKDLIETKAEEHNIVFMPVIGKRHEGKQLYTFGRIVIYIDRGVVFVQGEKTWVPTSLQSLIDMAK
partner: B4 partner

Variants of: B1
Settings: with atf4_human ATF4, P18848
Sequence of atf4_human ATF4, P18848 (P18848 whole entry): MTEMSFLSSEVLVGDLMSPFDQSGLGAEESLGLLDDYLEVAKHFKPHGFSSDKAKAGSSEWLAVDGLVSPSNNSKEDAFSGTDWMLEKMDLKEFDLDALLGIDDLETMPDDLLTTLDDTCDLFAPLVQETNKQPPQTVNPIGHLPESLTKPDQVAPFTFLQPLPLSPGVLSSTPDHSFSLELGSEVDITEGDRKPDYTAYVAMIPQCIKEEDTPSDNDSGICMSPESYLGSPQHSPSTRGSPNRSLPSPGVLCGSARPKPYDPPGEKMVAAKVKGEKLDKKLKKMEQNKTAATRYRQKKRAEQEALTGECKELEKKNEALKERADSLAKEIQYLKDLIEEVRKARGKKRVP

Variant	effect of a mutation on the interaction
A54T	with no effect

Variants of: B1
Settings: with fam9b_human FAM9B

Variant	effect of a mutation on the interaction
A54T	with no effect

Variants of: B1
Settings: with ptbp2_human PTBP2, Q9UKA9
Sequence of ptbp2_human PTBP2, Q9UKA9 (Q9UKA9 whole entry): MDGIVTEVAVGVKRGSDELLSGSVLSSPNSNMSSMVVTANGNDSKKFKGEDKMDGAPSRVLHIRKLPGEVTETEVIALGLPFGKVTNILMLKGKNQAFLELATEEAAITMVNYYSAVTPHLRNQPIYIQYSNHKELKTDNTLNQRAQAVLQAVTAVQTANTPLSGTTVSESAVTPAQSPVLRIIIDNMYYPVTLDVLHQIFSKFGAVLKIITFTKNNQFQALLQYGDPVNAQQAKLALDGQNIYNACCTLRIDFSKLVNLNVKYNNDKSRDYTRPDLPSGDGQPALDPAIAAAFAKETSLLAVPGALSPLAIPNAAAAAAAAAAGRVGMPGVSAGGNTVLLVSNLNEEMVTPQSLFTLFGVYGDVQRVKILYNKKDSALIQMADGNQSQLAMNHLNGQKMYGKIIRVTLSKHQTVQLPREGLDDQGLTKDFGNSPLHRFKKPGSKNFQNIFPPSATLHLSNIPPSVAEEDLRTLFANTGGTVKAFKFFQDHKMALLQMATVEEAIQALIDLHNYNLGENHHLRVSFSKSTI

Variant	effect of a mutation on the interaction
A54T	with no effect

Variants of: B2
Settings: with wasc3_human WASHC3, Q9Y3C0

Variant	effect of a mutation on the interaction
A605P	with no effect
E348D	with no effect
S55P	with no effect

Variants of: B3
Settings: with tcea2_human TCEA2, Q15560

Variant	effect of a mutation on the interaction
V393A	with no effect
A129T	with no effect

Variants of: B4
Settings: with dpoll_human POLL

Variant	effect of a mutation on the interaction
R23H	with no effect

Variants of: B5
Settings: with ikzf1_human IKZF1, Q13422
Sequence of ikzf1_human IKZF1, Q13422 (Q13422 whole entry): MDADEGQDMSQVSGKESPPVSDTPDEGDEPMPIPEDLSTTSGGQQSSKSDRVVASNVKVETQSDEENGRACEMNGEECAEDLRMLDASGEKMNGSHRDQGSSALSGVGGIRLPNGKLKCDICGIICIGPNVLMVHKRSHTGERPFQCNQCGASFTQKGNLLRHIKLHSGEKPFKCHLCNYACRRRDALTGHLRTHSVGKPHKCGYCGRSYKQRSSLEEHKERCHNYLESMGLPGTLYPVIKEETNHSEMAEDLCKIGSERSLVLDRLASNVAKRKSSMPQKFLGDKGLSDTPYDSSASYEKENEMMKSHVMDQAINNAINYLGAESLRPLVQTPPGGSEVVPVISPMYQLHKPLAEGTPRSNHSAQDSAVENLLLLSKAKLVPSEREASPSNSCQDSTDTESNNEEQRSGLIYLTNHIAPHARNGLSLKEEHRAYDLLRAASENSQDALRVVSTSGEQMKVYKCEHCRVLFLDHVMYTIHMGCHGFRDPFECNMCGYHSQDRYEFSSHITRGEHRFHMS

Variant	effect of a mutation on the interaction
R213C	with no effect
N226S	with no effect

Variants of: B6
Settings: with dpoll_human POLL

Variant	effect of a mutation on the interaction
R8Q	with no effect
